Measurements reported in patent publication US20120201854A1 (INDUSTRY FOUNDATION OF CHONNAM NATIONAL UNIVERSITY, published 2012).
Substitutions are numbered along the chain they refer to. Numbers in names are those of the source.

B1: flagellin mutant (N153W) of V. vulnificus flagellin FlaB (ligand)
chain: MAVNVNTNVAAMTAQRYLNNANSAQQTSMERLSSGFKINSAKDDAAGLQISNRLNVQSRGLDVAVRNANDGISIAQTAEGAMNETTNILQRMRDLSLQSANGSNSKSERVAIQEEVTALNDELNRIAETTSFGGNKLLNGTYGTKAMQIGADWGEAVMLSLKDMRSDNVMMGGVSYQAEEGKDKNWNVAAGDNDLTIALTDSFGNEQEIEINAKAGDDIEELATYINGQTDLVKASVGEGGKLQIFAGNNKVQGEIAFSGSLAGELGLGEGKNVTVDTIDVTTVQGAQESVAIVDAALKYVDSHRAELGAFQNRFNHAISNLDNINENVNASKSRIKDTDFAKETTQLTKTQILSQASSSILAQAKQAPNSALSLLG
notes: Recombinant, from pTYB12 intein fusion in E. coli ER2566
B2: flagellin mutant (V291W) of V. vulnificus flagellin FlaB (ligand)
chain: B1 chain with W153N, V291W
notes: as for B1
B3: flagellin mutant (D70A/N135D) of V. vulnificus flagellin FlaB (ligand)
chain: B1 chain with D70A, N135D, W153N
notes: Recombinant, from pTYB12 intein fusion in E. coli ER2566; also called dual site-directed mutant flagellin
B4: flagellin mutant (D70A) of V. vulnificus flagellin FlaB (ligand)
chain: B1 chain with D70A, W153N
notes: Recombinant, expressed in E. coli ER2566 from pTYB12 as intein fusion, released with DTT
B5: flagellin mutant (R93A) of V. vulnificus flagellin FlaB (ligand)
chain: B1 chain with R93A, W153N
notes: as for B1
B6: flagellin mutant (L97W) of V. vulnificus flagellin FlaB (ligand)
chain: B1 chain with L97W, W153N
notes: as for B1
B7: flagellin mutant (N101A) of V. vulnificus flagellin FlaB (ligand)
chain: B1 chain with N101A, W153N
notes: as for B1
B8: flagellin mutant (S103W) of V. vulnificus flagellin FlaB (ligand)
chain: B1 chain with S103W, W153N
notes: as for B1
B9: flagellin mutant (E108A) of V. vulnificus flagellin FlaB (ligand)
chain: B1 chain with E108A, W153N
notes: as for B1
B10: flagellin mutant (N135D) of V. vulnificus flagellin FlaB (ligand)
chain: B1 chain with N135D, W153N
notes: as for B1
B11: flagellin mutant (A151W) of V. vulnificus flagellin FlaB (ligand)
chain: B1 chain with A151W, W153N
notes: as for B1

Key:
[1] = molecular target: toll-like receptor-5 (hTLR5) expressed in 293T cells from p3xFlag-hTLR5 plasmid (human (printed only as hTLR5), UniProt O60602 21-858); test: cell-based or functional assay
toll-like receptor-5 (hTLR5) expressed in 293T cells from p3xFlag-hTLR5 plasmid, sequence (O60602 21-858): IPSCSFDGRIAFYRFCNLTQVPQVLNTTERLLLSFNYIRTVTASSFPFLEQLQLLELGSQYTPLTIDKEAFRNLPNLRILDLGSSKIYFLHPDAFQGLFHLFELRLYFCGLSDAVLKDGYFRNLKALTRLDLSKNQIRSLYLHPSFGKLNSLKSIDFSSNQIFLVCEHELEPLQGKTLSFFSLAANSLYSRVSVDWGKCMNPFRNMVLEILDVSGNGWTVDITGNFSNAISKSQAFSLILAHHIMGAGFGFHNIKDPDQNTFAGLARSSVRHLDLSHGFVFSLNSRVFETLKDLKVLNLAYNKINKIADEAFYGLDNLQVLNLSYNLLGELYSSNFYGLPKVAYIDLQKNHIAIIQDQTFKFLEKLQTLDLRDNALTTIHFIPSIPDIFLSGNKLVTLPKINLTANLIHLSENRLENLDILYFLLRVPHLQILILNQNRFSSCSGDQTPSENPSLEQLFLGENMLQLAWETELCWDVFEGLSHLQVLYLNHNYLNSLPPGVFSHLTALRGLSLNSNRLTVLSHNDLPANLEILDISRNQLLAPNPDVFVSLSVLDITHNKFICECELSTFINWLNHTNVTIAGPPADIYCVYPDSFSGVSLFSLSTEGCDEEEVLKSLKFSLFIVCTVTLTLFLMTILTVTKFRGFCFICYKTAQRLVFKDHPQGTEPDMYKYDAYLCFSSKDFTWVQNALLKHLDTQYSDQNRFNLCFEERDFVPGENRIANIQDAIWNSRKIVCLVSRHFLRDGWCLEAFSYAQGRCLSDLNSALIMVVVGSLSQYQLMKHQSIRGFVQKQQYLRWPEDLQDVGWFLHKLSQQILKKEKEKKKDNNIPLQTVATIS

[2] = molecular target: the molecule itself; test: native-gel electrophoresis, self-association in aqueous solution

| Binder | increase in TLR5-mediated NF-κB transcription activity (luciferase reporter, 293T cells, 20 ng/ml) compared to PBS control [1] [fold] | binding result [2] |
| --- | --- | --- |
| B1 | ~24.5 | binds |
| B2 | ~16.6 | binds |
| B3 | ~14.9 | binds |
| B4 | ~24.6 | binds |
| B5 | ~14 | binds |
| B6 | ~25 | binds |
| B7 | ~22.6 | binds |
| B8 | ~23.7 | binds |
| B9 | ~21 | binds |
| B10 | ~21.7 | binds |
| B11 | ~22.5 | binds |
